Assay results as given in the NTF2 design screens of Basanta et al. (2020).

Test: protease stability score; higher = more stable; yeast display proteolysis, trypsin and chymotrypsin;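 further: relative to predicted unfolded state with 0 unfolded-like and 1 meaning tenfold more protease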

| Sequence | protease stability score |
| --- | --- |
| TEDEELTSRANKEFQEFETTGDEEVLKRLFDPNTRLDVNGQDRHGRDEVVHLLVRMIHKLGIDHVSLKEVRIVNGKLDLNLTINVGEKRINTRLIHKKVNGRWVIETVEMG | 1.23 |
| TEDEENAERVARMFLKLLTTGDEHRLTELLDPNVIVEVGDKILIGREEALKLLRTWREKYGIDHVDVRHVEIEIVGDKVNVHMHGTIYVGDKKKDTRIHLHIRKINGRWMVEKVSIEEK | 2.68 |
| TEDEENVIEATRIFNRVLETGDEDSLKRLLDPNVRVNFDGVELIGWEDFLKFVFEWRKKAGITQVKSEPRDMDLQGNKVHNETILHINGRTFETRLVHEKVNGRWIARSIRFS | 1.21 |
| TEDEEYVKHIIDLFWHVKKTGDESHMKELADPNVRIEVDGRDIIGMEDVLKWEKDHREKIKGIRLNVHQWRIIGNKVESDLIVNINGVTIEFHVTVIIVNGKLHSLRVEFE | 1.21 |
| TEDEHDARLALHILLELLRTGDEDSLSKYIDPNVRNEVNGQDLHGRNTMERLLKHWRIEEVRVKDVRVQGDKVIMHGREVIRQGDYVIDQDVHWLLVKVDGRWLLHSIHFR | 0.918 |
| TEDEHHEELIAKELFHNFLTGNEDLLSEMADPNTKSDIDGKHDVGREEMSRSLIEFLDKMGIKHLVLTDHRAVNGKVILHERVHVNGRDIEVNLTWDVWNGRIKRVEIRITHR | 0.982 |
| TEDEKFVEEFTRLIMHSFRTGDWELFEHLLDPDTRIEQGDWERIGMEEAIRLLHKVVHEMRVTHTDLKSITVIDGRIEIDARVHLEFNGQSVTYTQLILSIKIDGRWVLKSVHFH | 1.87 |
| TEDEKIAKDTLEEITEALATGDEDQLNRLMDPNVKIFFNGQEIHGRHDSVKYWREIRIRDSHIIIRHVDIQGDKIRLDGEYQLRGEIDGQEIERTMHVRLFMHKVNGRWIVRRQVWG | 1.56 |
| TEDEKLSEDMTQHFIELLFTGDFDKISELADPNVRIHAENRTLVGRESFKRLMKKEIEFFKGARFHIEDLHIYDGRVDIHEIVSYGEFVIRRTIHSHKINGKWLETEVRLG | 0.929 |
| TEDEKLVEIALELWLRSLRTGDEDMFRELFDPNTRIFVNGVDHHGRHALEIVKERYDHVRDFHIELRSVHYVNGVLHVDGHFRMDIKYGDKRRIIENRTIMIIEKINGRWIFKHERLE | 1.24 |
| TEDEKMAEDLLKLILEAMETGDERIFRHLVDPNVRVSQGEKQLHGREAVEEMLKHLRLHRVRIRDVHVVGDKIIVQGEIHGEIGDFRFESHIIVYIHKFNGQWRHKSIEIK | 1.42 |
| TEDEKMLKESLERLLYTLHTGDEEFNKRLMDPEVRIVIGDKELHGMELARKFWEKLYKDLGADHVHMDVKHVRSIGDKVEVDSQLIFRVGDKEIRVDTKLFSHKFDGRWRLRYEYVD | 1.39 |
| TEDEKRYDDLVRHMLEVHRTGDEDLLERLLDPNARFLIDGVEYHGREQALEIARELRITSIRIRRIEFYGDKVTMDTEIDGRVNGRRRDTRVKEIWLKVDGKWYLESMEIH | 1.43 |
| TEDEKTAKHAKELLEHSIRTGDERLMERLLDPHALLIFDGRHIHGREDISRWYREIRIHHIHDENSEIQGDKLHLHMRIDGEYDGKRHELRVHWHSEKVNGRWSIRQVVLH | 1.44 |
| TEDEKVMKEAVEIQIHMFRTGNWDSLHKLVDPNARLDVDGREFHGREDFVRFIKKEAHEARVEDVIFRHVTTQGDKIVTHFDVRGVINGVEEIRKVTVFLRKINGRWLIESEEID | 0.737 |
| TEDEKVNDLAMEEIYTLMLTGDEERMEELFDPNVRMIIDGRRHVGREVFKDHMREWRWERTHVEDQRTFDGRAILHTRVDVTVGDKRRDVRIHIISSKINGRWVIKRIIIE | 0.758 |
| TEDERDAKRMAETMVKLWETGDWRTLFELADPDMRFEYGDKRFHGREKLIKVLRDIFERLGIDHSHVRDFKIIFVGEKVEVRLDIETHFDGRTEEFHIEINVRKIDGRWRLKSMHIEIR | 2.02 |
| TEDERDFREFWERWLHNTVTGDEELLSRMMDPHAKLHVGDKENVGMEEAARLFVEISDELRLHSFHIRHEEHQGDKVILHTRMNVRINGKEINFRTVMIVRKIDGRWIIRSFQID | 0.713 |

| Sequence | protease stability score |
| --- | --- |
| TEDERDMHEAMERHLQDLRTGNWEDVHRQVDPNVRLVFNGKEVHGREEYVEHTVRLAERADHIELRIRHIDTQGDKLRVEGELIIRQGDKTFIHEVELLFLKVNGRWIIHSFEIK | 1.55 |
| TEDERDMQEFYERLIHAIHTGDWREIRRQFDPNVLLNFNGKEIHGREQALRLMRELLHRADVIDDTKTKDLKFYNGRVELHIHEQGQINGQHFRSDVMLIVEKVNGRWYMKSYQID | 1.37 |
| TEDERDVVKLLHLVSKLWLTGDEHILEHLADPSVRSDFDGVRLHGRRLLSYFLSELRIHHVEVRDVRVEYQGDKLIARSDTEVDLEIDGQRHRMDTRMILISRKWDGRWLIESISFEIQ | 2.04 |
| TEDERHLEESIELFHEVHRTGDEEQLHRMLDPSVRVDVNGRILHGREIVVEWLRRTLEKFKNVQIEFILKDRDHINGVLRIHGVLLVNVGDKHTIIDTIIVAHKVNGRWLIHSMHVK | 2.15 |
| TEDERILKELAHLLLLLWKTGDENIWRELADPNVRVIFLIGDKEEHHHGRDMFIKLRHDYGVDHMELRRVDVQGDKVRFEGDLWVDGRIHRVHINFSVINGKVHQIKIDFS | 2.49 |
| TEDERLFHETLKIFEHAVQTGDEEELERMLDPNVRSTINGVRLHGRESFRKLFHIIWREIRFESVDVKRIHIQGDKMIWFTRIDGIFNGQRDLREVTIFADKIDGRWIFKEVDVR | 2.1 |
| TEDERMNKEFHRLIWELIDTGDEETLRKLADPNTRLEVNGKTIIGREEFLSIWKHELHMLGVKHLEIHIRSVMFFENRVENDVELVLHIGEYEERRRIHIFLIKINGKWYHKSERIR | 1.46 |
| TEDERMVSEHLKQWLHSLRTGDEDTIQRLFDPHTRIIFEGHEFIGMEDMEEWLTKFHEEARSHKLIIKRIHIIGDKVHVEGVLDGEYNGRRHELKVIIIALKINGRWVMHQIEIR | 1.97 |
| TEDETIAELALEEFIRILETGDEDDVNRLLDPHVRVDIDGKEIHGREHVYHHLRNLGVRIKIEWKRIRVVDGKVDSDGHVIERFNGRDIEVKSQFIMRKIDGRWVVHHFTRR | 0.488 |
| TEDHEDLRRFWEYFEEAFRTGDWKALSDLADPNVKIRIGDKLHVGRDDYYEFLRELIERVDHMELRLKRVHLVGDKLHVDSTLDLHVNGKRIHSRSRFTFTKVDGKWKVESVHYE | 1.61 |
| TEDHEIVEDALRLWWTSVHTGDETLMSRLADPDVRLIVGDKHFHGREKFTRTMKELDDEMRFHHLEIKEFELFDGRIKINVRLRGTIGDKHTIFEVNVINLKVNGKWLLKSLEVR | 1.1 |
| TEDHERIKKHIEILMHNLKTGNFEALVRMADPHVRFRLVQGNFHDETHGRDAWREVLERLGIDHIEIRDIRIHLYDGRLEMRIDGISRFNGREHKVELIIIIDKIDGRWRISEVELRIE | 2.15 |
| TEDHRDIYRIVKLLIEFFKTGDFDSLRHLADPNTRLDIGDKHRHGMDLILKEYMDEMHELGVKHFDIKIHDVEIQGDKAQWDLRLHIKVGDKIIELRVILHAVKVNGKWILHKIEFI | 1.38 |
| TEDIEHMIKVVEIFLRAVTTGNEDEMKYLMDPRMRLVVGDKIHHGWEEIWKFLEHIREERDKVHTKDTKVYNGRMDINSRVSSTIHFNGVRIEIDHEVHFHIKKINGRWFIEEIRIQ | 1.3 |
| TEDKEIAIRVTEHFIEAIYTGDEDRVRDLLDPEARLDVNGVELHGMRWFTFWLRQIRIHNMYIRHTEVQGDKVHVDMEQDVEFNGKRHELKSHFVLLKVNGRWTVKHYNVR | 2.28 |
| TEDKEKDDEVAHLFLNAVRTGDEELFQDLVDPETRLNVNGQEIHGRENVFRHMRETWDKMGVDHVELKDRRHINGVLILHFEIRVGDKTIHVEYIIEKIDGRWILTKVHIR | 0.569 |
| TEDLEKVHTFLNLLLHSRLTGDEDSLHRMADPNMRVDQGEYQHHGRELFIEWTKRELEHLRLRHYHLEDIDIYNGVVKVTGKMDVEVNGRRHHVDVTLIVLKINGRWHLKSVHIS | 1.24 |
| TEDLHQYHEFLEEMIRWLRTGDWEAKHRNADPNVRLDFNGVDFHGMEIVAKIEMELRRRVDHIELEVKRSEIVNGRVHIDQVYHIEYNGRSYEVKSELIVKKVNGKWLIKEERVR | 0.322 |
